Our source for the IC50 (ug/ml), neutralization, IC50, pseudovirus neutralization (TZM-bl) and IC50, pseudovirus neutralization (TZM-bl), control virus values is patent US20200024330A1.

Common to all, as to assay: cell-based or functional assay
For experiment [1], the target named is HIV-1 JR-CSF Env I309A (pseudovirus) (HIV-1 JR-CSF) (UniProt P20871).
The target in experiment [2] is HIV-1 Env of isolate CAP45 (HIV-1).
For experiment [3], the target named is HIV-1 Env of isolate CAAN (HIV-1).
Experiment [4] addresses HIV-1 ADA Env (pseudovirus) (HIV-1 ADA).
Experiment [5] addresses HIV-1 Env of isolate PVO.4 (HIV-1).
Experiment [6] addresses HIV-1 JR-FL Env E168K (pseudovirus) (HIV-1 JR-FL).
In experiment [7] the target is HIV-1 Env of isolate DU422 (HIV-1).
Experiment [8] concerns the target HIV-1 JR-CSF Env, wild type (pseudovirus) (HIV-1 JR-CSF) (UniProt P20871).
Experiment [9] deals with HIV-1 Env of isolate DU156 (HIV-1).
In experiment [10] the target is HIV-1 92RW020 Env (pseudovirus) (HIV-1 92RW020).
Experiment [11] has as its target HIV-1 Env of isolate Du172 (HIV-1).
In experiment [12] the target is HIV-1 Env of isolate TR0.11 (HIV-1).
Experiment [13] concerns the target HIV-1 Env of isolate ZM214 (HIV-1).
Experiment [14] addresses HIV-1 Env of isolate ZM249 (HIV-1).
For experiment [15], the target named is MuLV envelope protein (control pseudovirus) (MuLV).
Experiment [16] has as its target HIV-1 Env of isolate AC10 (HIV-1).
Experiment [17] concerns the target HIV-1 JR-CSF Env Y318A (pseudovirus) (HIV-1 JR-CSF) (UniProt P20871).
The target of experiment [18] is HIV-1 Env of isolate THRO.18 (HIV-1).
The target in experiment [19] is HIV-1 Env of isolate ZM233 (HIV-1).
The target of experiment [20] is HIV-1 Env of isolate REJ04541 (HIV-1).

B1: 1469_M23 (PG16) (TCN-118) (antibody, V domains shown)
VH: QEKLVESGGGVVQPGGSLRLSCLASGFTFHKYGMHWVRQAPGKGLEWVALISDDGMRKYHSDSMWGRVTISRDNSKNTLYLQFSSLKVEDTAMFFCAREAGGPIWHDDVKYYDFNDGYYNYHYMDVWGKGTTVTVSS
VL: QSALTQPASVSGSPGQTITISCNGTRSDVGGFDSVSWYQQSPGRAPKVMVFDVSHRPSGISNRFSGSKSGNTASLTISGLHIEDEGDYFCSSLTDRSHRIFGGGTKLTVLG
Regarding B1, the IC50 (ug/ml), neutralization in experiment [1] was more than 1 µg/mL; in experiment [4], 0.005 µg/mL; in experiment [6] it was 0.005 µg/mL; in experiment [8], 0.002 µg/mL; in [10] it was 0.05 µg/mL; in experiment [17], more than 1 µg/mL. The IC50, pseudovirus neutralization (TZM-bl) was less than 0.01 µg/mL in [2]; 17.7 µg/mL in experiment [3]; 21.2 µg/mL in experiment [5]; 0.97 µg/mL in experiment [7]; less than 0.01 µg/mL in [9]; less than 0.01 µg/mL in experiment [11]. For the same molecule, the IC50, pseudovirus neutralization (TZM-bl) in [12] is 7.52 µg/mL; in [13], more than 25 µg/mL; in experiment [14], less than 0.01 µg/mL; in [16] it was less than 0.01 µg/mL; in experiment [18], 7.01 µg/mL; in experiment [19], less than 0.01 µg/mL. For the same molecule, the IC50, pseudovirus neutralization (TZM-bl) in [20] turned out to be 0.39 µg/mL. The IC50, pseudovirus neutralization (TZM-bl), control virus in experiment [15] is more than 25 µg/mL.

B2: 1489_I13 (PG16) (TCN-120) (antibody, V domains shown)
VH: QEQLLESGGGVVQPGGSLRLSCLASGFTFHKYGMHWVRQAPGKGLEWVALISDDGMRKYHSNSMWGRVTISRDNSKNTLYLQFSSLKVEDTAMFFCAREAGGPIWHDDVKYYDFNDGYYNYHYMDVWGKGTTVTVSS
VL: QSALTQPASVSGSPGQTITISCNGTSSDVGGFDSVSWYQQSPGKAPKVMVFDVSHRPSGISNRFSGSKSGNTASLTISGLHIEDEGDYFCSSLTDRSHRIFGGGTKVTVLG
On to B2, for which the IC50 (ug/ml), neutralization in [1] is more than 1 µg/mL; in experiment [4], 0.008 µg/mL; in [6] it was 0.005 µg/mL; in experiment [8], 0.002 µg/mL; in [10] it was 0.03 µg/mL; in experiment [17], more than 1 µg/mL. Moreover, the IC50, pseudovirus neutralization (TZM-bl) in [2] was less than 0.01 µg/mL; in [3], 24.9 µg/mL; in experiment [5], 20.6 µg/mL; in [7] it was 1.87 µg/mL; in experiment [9] it was less than 0.01 µg/mL; in experiment [11] it was less than 0.01 µg/mL. For the same molecule, the IC50, pseudovirus neutralization (TZM-bl) in experiment [12] was 10.9 µg/mL; in experiment [13], more than 25 µg/mL; in [14] it was less than 0.01 µg/mL; in [16] it was less than 0.01 µg/mL; in experiment [18] it was 7.41 µg/mL; in experiment [19] it was less than 0.01 µg/mL. Also, in experiment [20], the IC50, pseudovirus neutralization (TZM-bl) amounted to 0.34 µg/mL. The same molecule returned an IC50, pseudovirus neutralization (TZM-bl), control virus in experiment [15] of more than 25 µg/mL.
